Article PMC9926122, “Kinetochore-microtubule attachment in human cells is regulated by the interaction of a conserved motif of Ska1 with EB1” (The Journal of Biological Chemistry, 2022)

B1: EB1-GST (natural protein, human, UniProt Q15691 1-268, looked up)
chain: MAVNVYSTSVTSDNLSRHDMLAWINESLQLNLTKIEQLCSGAAYCQFMDMLFPGSIALKKVKFQAKLEHEYIQNFKILQAGFKRMGVDKIIPVDKLVKGKFQDNFEFVQWFKKFFDANYDGKDYDPVAARQGQETAVAPSLVAPALNKPKKPLTSSSAAPQRPISTQRTAAAPKAGPGVVRKNPGVGNGDDEAAELMQQVNVLKLTVEDLEKERDFYFGKLRNIELICQENEGENDPVLQRIVDILYATDEGFVIPDEGGPQEEQEEY
notes: also called GST-tagged EB1; source: E. coli BL21 DE3, purified (Glutathione Sepharose)

Key:
Settings in all cases: both partners purified
[1] = target: B1; assay: pull-down
[2] = target: T1, 6xHis-tagged WT Ska1 (human, UniProt Q96BD8 1-255); assay: pull-down; competition: EB1-GST preincubated with the SXIP peptide aptamer for 2 h, GSH beads added, then incubated with Ska1 WT protein; rising doses of peptide
T1 construct: WT Ska1 from the plasmid pEC-S-CDF-His Ska1; Probably whole Ska1 (1-255); also called 6xHis Ska1 WT; 6xHis-Ska1; source: E. coli BL21 DE3, purified (Ni2+-NTA)

[3] = target: T1, 6xHis-tagged WT Ska1; assay: high-speed atomic force microscopy (HS-AFM); proteins (10-30 nM; 10 nM in the frames shown) in BRB80 buffer (80 mM Pipes, 1 mM EGTA, 1 mM MgCl2, pH 6.9) on mica, tapping mode, 150 ms per frame; EB1 alone, Ska1 alone and their mixture

T1 sequence (Q96BD8 whole entry): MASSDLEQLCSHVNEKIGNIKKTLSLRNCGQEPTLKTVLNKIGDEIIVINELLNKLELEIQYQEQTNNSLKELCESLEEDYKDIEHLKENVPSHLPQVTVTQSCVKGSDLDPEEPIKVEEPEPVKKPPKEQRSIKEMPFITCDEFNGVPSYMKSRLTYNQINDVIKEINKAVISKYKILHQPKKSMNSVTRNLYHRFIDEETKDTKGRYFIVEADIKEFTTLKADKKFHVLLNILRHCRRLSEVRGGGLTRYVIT

Q: ALNGQSRIPVLKRHTR [SXIP peptide aptamer] was tested. Which “percent reduction of EB1-Ska1 association at 1:5 M ratio of EB1:peptide” value [1] did it give?
A: ~70%

Q: Does B1 bind [2]?
A: binds

B2: recombinant EB1 (HS-AFM and microtubule experiments) (natural protein, human, UniProt Q15691 1-268, looked up)
chain: MAVNVYSTSVTSDNLSRHDMLAWINESLQLNLTKIEQLCSGAAYCQFMDMLFPGSIALKKVKFQAKLEHEYIQNFKILQAGFKRMGVDKIIPVDKLVKGKFQDNFEFVQWFKKFFDANYDGKDYDPVAARQGQETAVAPSLVAPALNKPKKPLTSSSAAPQRPISTQRTAAAPKAGPGVVRKNPGVGNGDDEAAELMQQVNVLKLTVEDLEKERDFYFGKLRNIELICQENEGENDPVLQRIVDILYATDEGFVIPDEGGPQEEQEEY
notes: recombinant EB1 with N-terminal calponin homology domains (EB1-N), linker and C-terminal dimer region (EB1-C) seen by HS-AFM; The only EB1 expression construct that the methods describe is GST-tagged EB1 in pGEX 5x3; also called EB1 dimer; source: recombinant
Q: Does B2 bind [3]?
A: binds
